Data from patent US12503511 (COMPASS THERAPEUTICS, dated 2025).
Where a chain is given by its changes, count along the chain named.

T1: murine PD-1 expressed on cells (murine, UniProt Q02242 25-288)
T1 construct: whole, on cells; also called muPD-1; mouse PD-1
T1 sequence (looked up): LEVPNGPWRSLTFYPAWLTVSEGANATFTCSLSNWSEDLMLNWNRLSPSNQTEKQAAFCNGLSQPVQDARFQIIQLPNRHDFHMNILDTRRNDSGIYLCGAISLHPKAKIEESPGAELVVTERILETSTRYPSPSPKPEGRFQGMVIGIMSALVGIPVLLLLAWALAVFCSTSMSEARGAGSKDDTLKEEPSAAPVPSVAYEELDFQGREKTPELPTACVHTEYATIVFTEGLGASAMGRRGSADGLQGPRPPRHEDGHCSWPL

B1: mAb25 (antibody, V domains shown)
VH: EVQLLESGGGLVQPGGSLRLSCAASGFTFSDYAMSWVRQAPGKGLEWVSAISNSGTYTYYADSVKGRFTISRDNSKNTLYLQMNSLRAEDTAVYYCARGLDFIVGATGNDYWGQGTLVTVSS
VL: not shown
notes: also called parent PD-1 antibody mAb25
B2: mAb26 (antibody, V domains shown)
VH: B1 VH with A106Y
VL: not shown
B3: mAb27 (antibody, V domains shown)
VH: B1 VH with D31S, A106Y
VL: not shown
B4: mAb29 (antibody, V domains shown)
VH: B1 VH with D31N, M34L, A106Y
VL: not shown
B5: mAb30 (antibody, V domains shown)
VH: B1 VH with D31A, S35N, A106Y
VL: not shown
B6: mAb31 (antibody, V domains shown)
VH: B1 VH with S30R, D31S, A106Y
VL: not shown
B7: mAb32 (antibody, V domains shown)
VH: B1 VH with S30G, D31R, A106Y
VL: not shown
B8: mAb33 (antibody, V domains shown)
VH: B1 VH with S30N, D31S, A106Y
VL: not shown
B9: mAb34 (antibody, V domains shown)
VH: B1 VH with D31N
VL: not shown
B10: mAb35 (antibody, V domains shown)
VH: B1 VH with D31G, A106R
VL: not shown
B11: mAb36 (antibody, V domains shown)
VH: B1 VH with D31S, S35N, A106R
VL: not shown
B12: mAb37 (antibody, V domains shown)
VH: B1 VH with S30R, D31S, A106R
VL: not shown
B13: mAb8 (antibody, V domains shown)
VH: QVQLVQSGAEVKKPGSSVKVSCKASGGTFSSYAINWVRQAPGQGLEWMGGIIPVFGTATYAQKFQGRVTITADESTSTAYMELSSLRSEDTAVYYCARLKFELKDAFDIWGQGTLVTVSS
VL: not shown
B14: mAb5 (antibody, V domains shown)
VH: B13 VH with I34F, N35S, F101G
VL: not shown
B15: mAb6 (antibody, V domains shown)
VH: B13 VH with V54I, T57I, T59N, F101G
VL: not shown
B16: mAb7 (antibody, V domains shown)
VH: B13 VH with V54N, F101G, D105G, F107G
VL: not shown
B17: mAb11 (antibody, V domains shown)
VH: B13 VH with I51V, V54F, F55L, T59N, F101G, E102I, F107L
VL: not shown
B18: mAb12 (antibody, V domains shown)
VH: B13 VH with N35S, G44D, V54I, F55V, T57I, T59N, F101G
VL: not shown
B19: mAb13 (antibody, V domains shown)
VH: B13 VH with N35S, F101G, L103F
VL: not shown
B20: mAb14 (antibody, V domains shown)
VH: B13 VH with N35S, G50R, V54L, T59H, F101G
VL: not shown
B21: mAb15 (antibody, V domains shown)
VH: B13 VH with N35S, G50R, I52N, V54I, F55L, T59N, F101G, D108S
VL: not shown
B22: mAb21 (antibody, V domains shown)
VH: B13 VH with T28P, S30R, Y32H, I34V, N35S, F101S
VL: not shown
B23: mAb23 (antibody, V domains shown)
VH: B13 VH with F101G, L115M
VL: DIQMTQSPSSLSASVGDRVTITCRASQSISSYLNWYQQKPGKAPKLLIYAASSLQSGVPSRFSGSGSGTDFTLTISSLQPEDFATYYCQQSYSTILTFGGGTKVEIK
B24: mAb16 (antibody, V domains shown)
VH: B13 VH with G50R, V54I, T59D, F101G
VL: not shown

Target: T2, human PD-1 expressed on cells (human, UniProt Q15116 25-288)
T2 construct: also called huPD-1; CHO cells expressing human PD-1
Experiment: cell binding titration, CHO cells expressing human PD-1

T2 sequence (Q15116 25-288 limits assumed): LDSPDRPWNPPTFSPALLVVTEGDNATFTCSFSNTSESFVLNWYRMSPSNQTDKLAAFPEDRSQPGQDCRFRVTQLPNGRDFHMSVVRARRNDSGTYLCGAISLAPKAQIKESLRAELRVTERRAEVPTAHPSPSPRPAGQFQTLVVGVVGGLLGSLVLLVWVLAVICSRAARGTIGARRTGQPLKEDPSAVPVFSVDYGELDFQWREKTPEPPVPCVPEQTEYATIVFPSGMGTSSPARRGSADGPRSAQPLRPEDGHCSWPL

Binder | EC50 [nM]
B1 | 0.915
B2 | 3.74
B3 | 1.75
B4 | 1.27
B5 | 2.77
B6 | 1.71
B7 | 1.51
B8 | 1.04
B9 | 3.87
B10 | 1.64
B11 | 1.01
B12 | 0.75

Target: T3, cyno PD-1 expressed on cells (cynomolgus)
T3 construct: whole, on cells; also called cyPD-1; cynomolgus PD-1
Experiment: cell binding EC50 on CHO-cyno PD-1; fold improvement over parent mAb25

Binder | Fold improvement over Parent [fold]
B2 | 5.6
B3 | 5.6
B4 | 5
B5 | 4.2
B6 | 4.5
B7 | 6.7
B8 | 6.5
B9 | 6.5
B10 | 3.2
B11 | 7.2
B12 | 7.9

Target: T4, murine PD-L1 expressed on cells (murine, UniProt Q9EP73 19-290)
T4 construct: whole, on cells; also called muPDL1; mouse PD-L1
Experiment: cell binding titration, A20 cells expressing murine PD-L1

T4 sequence (Q9EP73 19-290): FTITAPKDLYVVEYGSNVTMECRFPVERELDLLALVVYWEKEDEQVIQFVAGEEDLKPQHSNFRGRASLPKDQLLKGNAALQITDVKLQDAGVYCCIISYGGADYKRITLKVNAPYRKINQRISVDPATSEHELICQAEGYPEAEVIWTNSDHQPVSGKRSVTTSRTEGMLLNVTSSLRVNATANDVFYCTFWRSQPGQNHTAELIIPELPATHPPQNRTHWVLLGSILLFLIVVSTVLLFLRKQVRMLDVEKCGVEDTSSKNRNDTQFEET

Binder | binding result
B13 | no binding
B14 | no binding
B15 | no binding
B16 | no binding
B17 | no binding
B18 | no binding
B19 | no binding
B20 | no binding
B21 | no binding
B22 | no binding
B23 | no binding
B24 | no binding

Target: T5, purified recombinant His tagged human PD-L1 (human, UniProt Q9NZQ7 19-238)
T5 construct: not shown: His tag
Experiment: SPR (Carterra MX96), antibody on chip, His-tagged human PD-L1 injected

T5 sequence (Q9NZQ7 19-238 limits assumed): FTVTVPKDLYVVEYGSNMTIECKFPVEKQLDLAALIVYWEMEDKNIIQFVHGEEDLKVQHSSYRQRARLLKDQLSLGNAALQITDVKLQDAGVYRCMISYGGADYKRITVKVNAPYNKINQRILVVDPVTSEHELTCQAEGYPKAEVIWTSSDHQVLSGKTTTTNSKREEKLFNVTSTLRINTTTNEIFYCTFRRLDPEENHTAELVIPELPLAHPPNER

Binder | Kd [nM]
B13 | 3.7
B14 | 27.1
B15 | 35.9
B17 | 156
B18 | 358
B19 | 52.3
B22 | 91.5
B23 | 369

Target: T6, cyno PD-L1 expressed on cells (cynomolgus)
T6 construct: whole, on cells; also called cynomolgus PD-L1
Experiment: cell binding titration, HEK cells expressing cyno PD-L1

Binder | EC50 [nM]
B13 | 0.08
B14 | 0.39
B15 | 0.47

Target: T7, human PD-L1 expressed on cells (human, UniProt Q9NZQ7 19-290)
T7 construct: also called huPDL1; human PD-L1 on HEK cells
Experiment: cell binding EC50 on HEK-human PD-L1; fold improvement, reference taken as parent mAb24

T7 sequence (Q9NZQ7 19-290 limits assumed): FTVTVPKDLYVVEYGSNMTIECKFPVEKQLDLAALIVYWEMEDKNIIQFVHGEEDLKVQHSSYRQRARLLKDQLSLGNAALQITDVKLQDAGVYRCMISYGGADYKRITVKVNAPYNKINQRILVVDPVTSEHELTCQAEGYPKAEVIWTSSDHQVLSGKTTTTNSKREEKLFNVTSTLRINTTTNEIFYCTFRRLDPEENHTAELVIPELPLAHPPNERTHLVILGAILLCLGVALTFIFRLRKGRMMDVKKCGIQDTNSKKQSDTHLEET

Binder | Fold Improvement [fold]
B14 | 1.5
B15 | 1.1
B17 | 0.1
B18 | 0.1
B19 | 1
B20 | 0.1
B22 | 1
B23 | 0.2

Target: T3, cyno PD-1 expressed on cells
Experiment: cell binding titration, CHO cells expressing cyno PD-1

Binder | EC50 [nM]
B1 | 8.59
B2 | 1.54
B3 | 1.53
B4 | 1.73
B5 | 2.05
B6 | 1.9
B7 | 1.29
B8 | 1.33
B9 | 1.33
B10 | 2.66
B11 | 1.19
B12 | 1.09

Target: T8, purified recombinant His tagged human PD-1 (human, UniProt Q15116 25-170)
T8 construct: not shown: His tag
Experiment: SPR KD; fold improvement over parent mAb25

T8 sequence (Q15116 25-170 limits assumed): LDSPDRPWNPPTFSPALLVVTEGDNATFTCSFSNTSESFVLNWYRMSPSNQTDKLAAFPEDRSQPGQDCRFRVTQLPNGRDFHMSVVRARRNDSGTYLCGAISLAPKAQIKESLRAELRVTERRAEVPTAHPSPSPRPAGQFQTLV

Binder | Fold improvement over Parent [fold]
B2 | 24
B3 | 104
B4 | 28
B5 | 77
B6 | 44
B7 | 114
B8 | 34
B9 | 33
B10 | 27
B11 | 31
B12 | 17

Target: T8, purified recombinant His tagged human …
Experiment: SPR (Carterra MX96), antibody on chip, His-tagged human PD-1 injected

Binder | Kd [nM]
B1 | 240
B2 | 10
B3 | 2.3
B4 | 8.6
B5 | 3.1
B6 | 5.5
B7 | 2.1
B8 | 7
B9 | 7.2
B10 | 9
B11 | 7.7
B12 | 14

Target: T2, human PD-1 expressed on cells
Experiment: cell binding EC50 on CHO-human PD-1; fold improvement over parent mAb25

Binder | Fold improvement over Parent [fold]
B2 | 0.2
B3 | 0.5
B4 | 0.7
B5 | 0.3
B6 | 0.5
B7 | 0.6
B8 | 0.9
B9 | 0.2
B10 | 0.6
B11 | 0.9
B12 | 1.2

Target: T1, murine PD-1 expressed on cells
Experiment: cell binding titration, CHO cells expressing murine PD-1

Binder | binding result | EC50 [nM]
B1 | no binding | 
B2 |  | 17.9
B3 |  | 6.14
B4 |  | 2.14
B5 |  | 4.05
B6 |  | 1.87
B7 |  | 2.8
B8 |  | 10.4
B9 |  | 20.5
B12 |  | 0.942

Target: T7, human PD-L1 expressed on cells
Experiment: cell binding titration, HEK cells expressing human PD-L1

Binder | EC50 [nM]
B14 | 0.09
B15 | 0.13
B17 | 1.37
B18 | 1.23
B19 | 1.43
B20 | 1.54
B22 | 0.14
B23 | 0.83

Target: T5, purified recombinant His tagged human …
Experiment: SPR KD; fold improvement, reference taken as parent mAb24

Binder | Fold Improvement [fold]
B13 | 1.2
B14 | 0.2
B15 | 0.1
B19 | 0.1
B22 | 0.1

Target: T6, cyno PD-L1 expressed on cells
Experiment: cell binding EC50 on HEK-cyno PD-L1; fold improvement, reference taken as parent mAb24

Binder | Fold Improvement [fold]
B13 | 3.42
B14 | 0.74
B15 | 0.61
